The values that follow are results of earlier work, collected in article PMC4554922.

A word on the Kd: it is a measure of binding affinity in units of concentration.

In this data set the target is SAS-6 head domain (UniProt Q6UVJ0).

Turning to SAS-6 head domain (from UniProt Q6UVJ0), the dissociation constant Kd was 80 µM.
